# Measurements: US20070173444A1 (AFFYMAX, published 2007)
# Square brackets hold non-standard residues; d marks the D form. Ends that are not written are not given here. Ahx = NCCCCCC(=O)O
# T1: native IL-5R a/β complex on TF-1 cells (human, UniProt Q01344 21-420; P32927 17-897)
# T1 sequence (looked up) 1: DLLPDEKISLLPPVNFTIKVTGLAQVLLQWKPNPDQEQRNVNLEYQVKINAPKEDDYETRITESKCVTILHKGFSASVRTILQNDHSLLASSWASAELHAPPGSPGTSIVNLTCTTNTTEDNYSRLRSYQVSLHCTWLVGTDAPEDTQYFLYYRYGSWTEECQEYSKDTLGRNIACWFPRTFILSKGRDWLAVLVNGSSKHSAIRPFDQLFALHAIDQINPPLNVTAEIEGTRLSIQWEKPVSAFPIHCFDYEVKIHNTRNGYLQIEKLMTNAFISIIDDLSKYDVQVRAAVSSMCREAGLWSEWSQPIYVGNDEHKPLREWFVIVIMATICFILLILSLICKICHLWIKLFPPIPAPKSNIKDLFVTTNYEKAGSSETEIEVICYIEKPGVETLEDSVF
# T1 sequence (looked up) 2: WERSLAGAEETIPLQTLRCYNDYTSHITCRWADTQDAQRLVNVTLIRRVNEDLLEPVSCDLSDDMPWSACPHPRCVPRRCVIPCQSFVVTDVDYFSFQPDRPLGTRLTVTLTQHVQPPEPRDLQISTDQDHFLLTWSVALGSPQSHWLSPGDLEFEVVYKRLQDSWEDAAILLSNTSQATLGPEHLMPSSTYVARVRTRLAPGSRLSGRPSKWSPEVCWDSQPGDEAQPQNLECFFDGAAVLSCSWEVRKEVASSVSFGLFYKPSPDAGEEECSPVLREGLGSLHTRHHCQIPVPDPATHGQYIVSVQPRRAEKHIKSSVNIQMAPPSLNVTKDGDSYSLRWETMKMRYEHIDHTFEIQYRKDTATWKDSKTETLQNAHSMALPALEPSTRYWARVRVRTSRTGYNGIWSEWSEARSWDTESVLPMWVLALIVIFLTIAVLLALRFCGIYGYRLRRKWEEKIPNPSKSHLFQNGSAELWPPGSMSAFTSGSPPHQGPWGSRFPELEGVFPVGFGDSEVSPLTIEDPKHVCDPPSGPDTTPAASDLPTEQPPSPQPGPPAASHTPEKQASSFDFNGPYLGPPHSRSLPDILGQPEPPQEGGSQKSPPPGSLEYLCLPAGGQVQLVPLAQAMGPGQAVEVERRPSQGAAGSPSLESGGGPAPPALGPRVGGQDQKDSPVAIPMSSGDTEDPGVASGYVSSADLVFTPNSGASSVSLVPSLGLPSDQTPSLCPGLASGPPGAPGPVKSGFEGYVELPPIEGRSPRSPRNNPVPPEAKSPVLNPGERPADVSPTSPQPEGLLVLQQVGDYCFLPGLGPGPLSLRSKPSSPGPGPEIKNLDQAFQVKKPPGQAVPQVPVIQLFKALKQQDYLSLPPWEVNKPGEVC
# T2: IL-5RaECD (the extracellular domain (ECD) of the human IL-5 receptor a chain) (human, UniProt Q01344 21-342, extensively glycosylated)
# T2 construct: extracellular domain; also called IL-5RαECD; soluble IL-5Ra
# T2 sequence (Q01344 21-342, looked up): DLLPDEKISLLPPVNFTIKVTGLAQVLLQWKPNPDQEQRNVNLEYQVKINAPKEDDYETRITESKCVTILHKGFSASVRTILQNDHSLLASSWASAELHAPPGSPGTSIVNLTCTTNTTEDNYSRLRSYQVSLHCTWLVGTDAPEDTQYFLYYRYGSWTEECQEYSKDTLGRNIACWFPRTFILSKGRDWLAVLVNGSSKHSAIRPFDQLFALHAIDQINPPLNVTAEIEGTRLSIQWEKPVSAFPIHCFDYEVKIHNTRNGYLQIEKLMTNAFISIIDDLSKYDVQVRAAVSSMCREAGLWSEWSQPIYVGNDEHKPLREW
# B1: dimer of (H)-EGYVCVEWARCPTCG-(NH2) (peptide)
# peptide: H-EGYVCVEWARCPTCG-NH2
# modifications: disulfide (positions not given here); also: dimer, intramolecular and intermolecular disulfide linkages, places not given here
# B2: dimer of (H)-GYVCVEWARCPTCR-(OH) (peptide)
# peptide: H-GYVCVEWARCPTCR-OH
# modifications: disulfide (positions not given here); also: dimer, intramolecular and intermolecular disulfide linkages, places not given here
# B3: dimer of (H)-EGYVCVEWARCPTCR-(OH) (peptide)
# peptide: H-EGYVCVEWARCPTCR-OH
# modifications: disulfide (positions not given here); also: dimer, intramolecular and intermolecular disulfide linkages, places not given here
# B4: dimer of (H)-EGYVCVEWARCPTCR-(NH2) (peptide)
# peptide: H-EGYVCVEWARCPTCR-NH2
# modifications: disulfide (positions not given here); also: dimer, intramolecular and intermolecular disulfide linkages, places not given here
# B5: dimer of (Ahx)-EGYVCVEWARCPTCR-(NH2) (peptide)
# peptide: [Ahx]EGYVCVEWARCPTCR-NH2
# modifications: disulfide (positions not given here); also: dimer, intramolecular and intermolecular disulfides, places not given here
# B6: dimer of (Ac)-EGYVCVEWAACPTCR-(NH2) (peptide)
# peptide: Ac-EGYVCVEWAACPTCR-NH2
# modifications: disulfide (positions not given here); also: dimer, intramolecular and intermolecular disulfides, places not given here
# B7: dimer of (H)-EGYVCVEWARCPTCK-(OH) (peptide)
# peptide: H-EGYVCVEWARCPTCK-OH
# modifications: disulfide (positions not given here); also: dimer, intramolecular and intermolecular disulfide linkages, places not given here
# B8: dimer of (Ac)-EGYVCVEWARCPTCK-(NH2) (peptide)
# peptide: Ac-EGYVCVEWARCPTCK-NH2
# modifications: disulfide (positions not given here); also: dimer, intramolecular and intermolecular disulfides, places not given here
# B9: dimer of (Ac)-EGYVCVEWARCPTCR-(NH2) (peptide)
# peptide: Ac-EGYVCVEWARCPTCR-NH2
# modifications: disulfide (positions not given here); also: dimer, intramolecular and intermolecular disulfides, places not given here
# B10: dimer of (H)-EGYVCVEFARCPTCR-(NH2) (peptide)
# peptide: H-EGYVCVEFARCPTCR-NH2
# modifications: disulfide (positions not given here); also: dimer, intramolecular and intermolecular disulfides, places not given here
# B11: dimer of (H)-EGYVCVEFARCPTCR-(OH) (peptide)
# peptide: H-EGYVCVEFARCPTCR-OH
# modifications: disulfide (positions not given here); also: dimer, intramolecular and intermolecular disulfides, places not given here
# B12: dimer of (H)-GYVCVEFARCPTCG-(NH2) (peptide)
# peptide: H-GYVCVEFARCPTCG-NH2
# modifications: disulfide (positions not given here); also: dimer, intramolecular and intermolecular disulfide linkages, places not given here
# B13: dimer of (H)-EGYVCVEFARCPTCG-(NH2) (peptide)
# peptide: H-EGYVCVEFARCPTCG-NH2
# modifications: disulfide (positions not given here); also: dimer, intramolecular and intermolecular disulfides, places not given here
# Target: T1, native IL-5R a/β complex on TF-1 cells
# Experiment: cell-based or functional assay
row,Binder,Microphysiometer pIC50 (block of TF-1 cell response to IL-5)
1,B1,9.1 negative log of the molar IC50
2,B2,8.4 negative log of the molar IC50
3,B3,9.6 negative log of the molar IC50
4,B4,9.1 negative log of the molar IC50
5,B5,9 negative log of the molar IC50
6,B6,6.9 negative log of the molar IC50
7,B7,9.2 negative log of the molar IC50
8,B8,8.4 negative log of the molar IC50
9,B9,9.1 negative log of the molar IC50

# Target: T2, IL-5RaECD (the extracellular domain …)
# Experiment: competition with [125I] IL-5 for binding to IL-5Ra ECD; peptide assayed immediately after dissolving
# Description: Binding affinities of synthetic peptides for IL-5Ra were measured in a competition binding assay using radio-iodinated IL-5. Immulon 4 (Dynatech) microtiter wells were coated with streptavidin (Sigma) by incubating 100 ul of a 50 ug/ml solution in PBS for 30 min. at 37. The wells were blocked with 200 ul of 1% BSA in PBS for 15 min. at 37, followed by 100 III of biotinylated monoclonal antibody, designated mAb 179, at 5 u. g/ml in PBS. Soluble IL-5Ra was then immobilized in the wells by incubating 100 µl of a solution of soluble receptor harvest diluted 1: 5000 in PBS/0.1% BSA for 1 hr. at 4. After washing away unbound receptor, 50 ul of various concentrations of test peptide diluted in PBS/0.1% BSA were added to the wells, followed by 50 µl of a fixed concentration of [₁₂₅I] IL-5 (Amersham). The binding reactions were incubated at 4 C for 2 hr, then washed with PBS to remove unbound [₁₂₅I] IL-5. Bound [₁₂₅I] IL-5 was determined by gamma counting.
# Total binding was defined by the amount of [₁₂₅I] IL-5 bound in the absence of any competitor. Non-specific binding was defined by the amount of [₁₂₅I] IL-5 bound in the presence of 30 nM IL-5. Peptide binding data was analyzed to determine the peptide concentration required to reduce specific [₁₂₅I]
row,Binder,IC50
1,"TGGGDGYVCVEWARCPTCK (three Cys in free sulfhydryl form, T0005 prints 32-50) [AF17362 (three cysteine residues in the free sulfhydryl form)]",120 nM

# Target: T2, IL-5RaECD (the extracellular domain …)
# Experiment: scintillation proximity competition assay, 20 pM [125I] IL-5, soluble IL-5Ra on beads; dimer of the printed monomer
# Description: Binding affinities of synthetic peptides for IL-5Ra were measured in a scintillation proximity assay (SPA) using radio-iodinated IL-5. Streptavidin coated SPA beads (Amersham) were suspended in IL-5 binding buffer (phosphate buffered saline, 0.1% bovine serum albumin, 0.2% NaN3) at 2 mg beads/ml of buffer. Biotinylated mAb 179 was adsorbed onto the beads at a ratio of 2 ig Ab/mg beads by incubating the beads and antibody with agitation for at least 2 h. at 4. The beads were pelleted at 2500 rpm and resuspended at 2 mg/ml in binding buffer. Soluble IL-5Ra was then adsorbed onto the beads by diluting a solution of soluble receptor harvest 1:500 into the bead suspension and incubating with agitation for 2 hr at 4. The beads were again pelleted at 2500 rpm and resuspended at 2 mg/ml in binding buffer. Competition binding assays were carried out in 100p1 reactions in white polystyrene microtiter plates. These reactions contained 0.05 mg of receptor coated SPA beads, various concentrations of test peptide diluted in binding buffer, and 20 pM [₁₂₅I] IL-5 (Amersham). The plates were incubated at room temperature for 1 hour with agitation, then centrifuged for 5 min at 1500 rpm followed by scintillation counting on a Topcount instrument (Packard). Total binding was defined by the amount of [₁₂₅I] IL-5 bound in the absence of any competitor. Non-specific binding was defined by the amount of [₁₂₅I] IL-5 bound in the presence of 30 nM IL-5. Peptide binding data was analyzed to determine the peptide concentration required to reduce specific [₁₂₅I] IL-5 binding by 50% (IC₅₀). In each instance, the dimer has both intramolecular and intermolecular disulfide linkages as shown generically below: […]
row,Binder,SPA pIC50
1,B2,8.2 negative log of the molar IC50
2,B10,6.4 negative log of the molar IC50
3,B11,6.8 negative log of the molar IC50
4,B3,8.4 negative log of the molar IC50
5,B12,6.1 negative log of the molar IC50
6,B4,8.1 negative log of the molar IC50
7,B13,6.6 negative log of the molar IC50
8,B7,8.7 negative log of the molar IC50
